Assay: yeast display, Sf9 membrane polyspecificity reagent, FACS + sequencing; frameworks hold sequencing errors
Method in brief: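 Sorting gates, low and high (top ~1%), were placed on anti-HA fluorescence to track expression and on streptavidin fluorescence to track reagent binding. A clone's polyreactivity label is taken from the gate it came out of. The reagent was 10% biotinylated, detergent-solubilized Sf9 membrane, applied for 1 hour at 4 °C to galactose-induced yeast display cells.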

| Sequence | polyreactivity (PSR sort gate) |
| --- | --- |
| QVHLVESGGGLVQAGGSLLLSCAASGSTQLGNAMGWYRQAPGKERELVAAISTSGDSTNYADSVKGRFTISRDNAKNTVYLEMNSLKPEDTAVYYCNAGGYLNSDVDRVGYWGQGTQVTVSS | low polyreactivity |
| QVQLVESGGGLVQAGGSLRLSCAASGSTIAYYAMGWDRQAPGKERELVAVINGITGSTYYADSVKGRFTISRDNEKNTVYLQMNSLKPEDTAVYYCNADYADVTDEGDYWGQGTQVTVSS | low polyreactivity |
| QVQLVESGGGLVQAGGSLRLSCAASGIIFYYYAMGWYRQPPGKERELVAAISWSGDGTYYADSVKGRFTISRDNPKNTVYLQMNSLKPEDTAVYYCAALNDGFSGYDYLDEYTDYGYWGQGTQVTVSS | low polyreactivity |
| QVQLVESGGGLVQARGSLRLSCAASGFIYRYNVMGWYRQAPGKERELVAAISTSGGRTYYADSVKGRFTISRDNAKITVYLQMNSLKPEDTAVYYCIAVISEVHKVRDGFYWGQGSQVTVSS | high polyreactivity |
| QVQLVESGGGLVQAGGSLRLSCAASGRISYRNAMGWYRQAPGKERELVATITNGGSTYYADSVKGRFTISRDNAKNTVYLQMNSLKPEDTAVYYCAKEVWNWGPYYYWGQGTQVTVSS | low polyreactivity |
| QVQLVESGGGLVQAGGSLRLSCAASRIFRGYAMGWYRQAPGKERELVAAIRRGGSTNYADSVKGRFTISRDNAKNTVYLQMNCLKPEVTAVYYCNAYLYLPRYDYWGQGTQVTVSS | high polyreactivity |
| QVQIVESGGVLVQAGGSLRLRCAASGSTFNRYAMGWYRQAPGKERELVASITTSDSTNYADSVKGRFTISRDNAQNTVYLQMNRLKPEDTALYYCNAEVRGVWYTYDYWGQGTQVTVSS | low polyreactivity |
| QVQLVESGGGLVQAGGSLRLSCAASGSTFGAYAMGWYRQAPGKERELVAAISSSDGSTYYADSVKGRFTISRDNAKNTVYLQMNSLKPEDTAVYYCAAEYYSAVYIDEYWYDYWGQGTQVTVSS | high polyreactivity |
| QVQLVESGGGLVQAGGSLRLSCAASGLIFYDNMGWYRQAPGKERELVAAISSSGGSTSYADSVKGRFTISRDNAKNTVYLQMNSLKPEDTAVYYCAADVELWVFRGQQYDYWGQGTQVTVSS | low polyreactivity |
| QVQLVESGGGLVQAGGSLRLSCAASGGTSYAYTMGWYRQAPGKERELVAAISGSTGSTYYADSVKGRFTISRDNAKNTVYLQMNSLKPEDTAVYYCNADISSLYSLSWFRYWYDYWGQGTQVTVSS | low polyreactivity |
| QVQLVESGGGLVQAGGSLRLSCAASGFTFVAYAMGWYRQAPGKERELVAAIRRTDTSTYYADSVKGRFTISRDNAKNTVYLQINSLKPEDTAVYYCAADYWRRTYLGFDYWGQGTQVTVSS | low polyreactivity |
| QVQLVETGGGLVQAGGSLRLSCAASGRIIRYNAMGWYSQAPGKERELVAAISTRGGNTYYADSVKGRFTISRDNAKNTVYLQMNSLKPEDTAVYYCNARSSLPYNYWGQGTQVTVSS | high polyreactivity |
| QVQLVESGGGLVKAGGSLRLSCAASGITCTKNAMGWYRQAPGKERELVAAISTSGGSTYYADSVKGRFTISRDTAKNTVYLQMTSLKPEDTAVYYCAARAVIRGGRYFYWGQGTLVTVSS | high polyreactivity |
| QVQLVESGGGLVQSGGSLRLSCAASGRILSYNTMGSYRQAPGKERELVAAISRGGSTYYADSVKGRFTISRDNAKNTVYLQMNSLKPEDTAVYYCNALLPPGSRKYNYWGQGTQVTVSS | high polyreactivity |
| QVQLVESGGGLVQAGGILRLSCAPYGSIFSQNAMGWYRQAPGKERELVAAISSSGTRTYYADSVKARFTISRDNAQNTVYLQMNSLKPEDTAVYYSNKVHFLPRYFLRSDYWGQGTQVTVSS | high polyreactivity |
| QVQLVESWGGLVQAGGSLRLSCAASGRTFDRYDMGWYRQAPGKERELVATISSSGGSTYYADSVKGRFTISRDNAKNTVYLQMNSLKPEDTAVYYCAADPSGDYWGQGTQVTVSS | low polyreactivity |
| QVQLVESGGGLVQAGGSLSLSCAASGRIINWYAMGWYRQATGKERELVARISSGDITSYADSVKGRFTISRDNAKNTVYLQMYSLKPEDTAVSYCAARQWFLYDYWGQGTQVTVSS | low polyreactivity |
| QVELVESGGGLVQAGGSLRLSCAASGCIFTFYAMGWYRTAPGKARELVAAISSSGTSTYYADSVKGRFTISRDNAKNTVYLQMNSLKPEDTAVYYCAAGTAYSRYGYWGQGTQVTVSS | high polyreactivity |
| QVQLVESGGGLVQAGGSLRLSCAASGLTFVKNAMGWYRQAPGKERELVATISSGGSTNYADSVKGRFTISRDNAKNTVYLQMNSLKPEDTAVYYCNKDYTGVLLWIWWDRYDYWGQATQVTVSS | high polyreactivity |
| QVQLVESVGGLVQAGGSLRLSCAASGSTFQSNGMGWYRQAPGKERELVAAITSTDASTSYADSVKGRFTISRDNAKITVYLQMNSLKPEDTAVYYCAADFPVASGAELDYWGQGTQVTVSS | low polyreactivity |
| QVQLVESGGGLVQAGGSRRLSCAASGFIFTKYTMGWYRQAPGKERELVAAIRSDGVRTYYADSVKGRFTISRDNAKNTVYLQMNSLKPEDTAVYYCAARSLRYGRGMYYWGQGTQVTVSS | high polyreactivity |
| QVQLVESGGGLVQAGGSLRLSCAASGSIFQYYVMGWYRQAPGKERELVAAISQSGGRTYYADSVKGRFTISRDNAKNTVYLQMNSLKPEDTAVYYCAADSRNAEYDYWGQGTQVTVSS | high polyreactivity |

| Sequence | polyreactivity (PSR sort gate) |
| --- | --- |
| QVLLVESGGGLVQAGGSLRVSCAASGFTFYGYAMGWYRQAPGKERELVAARSSTGGRTYYADSVKGRFTISRDNAKNTVYLQMNSLKPEDTAVYYCNKVWRFAEHNYWGQGTQVTVSS | high polyreactivity |
| QVQLVESGGGLVQAGGSLRLICAASGRIFHPYAMAWYRQAPGKERELVATISWSGGSTTYEDSVKGRFTISRDNAKNTVYLQMNSLKPEDTAVYYCNADYWWSYVRFVYWGQGTQVTVSS | low polyreactivity |
| QVQLQDSGGGLVQAGGSLRQSYAASGYIFPSLAMGWYRQAPGKEREFVAAIGRGSTNNYADSVKGRFTISRDNAKNTAYQQMNSLKPEDTAVYYCAAAASPLTRHLYWGQGTQVTVSS | low polyreactivity |
| QVQLVESGGGLVQAGGSLRLSCAASGIIFGEYAMGWYRQAPGKERELVAAISQSGGTYYADSVKGRFTISRDNAKNTVYLQMNSLKPEDTAVYYCNADYWAYISRVRYDYWGQGTQVTVSS | low polyreactivity |
| QVQLVESGGGLVQAGGSLRLSCAASGSTFRYYGMGWYRQAPGKERELVAAISNGDSTNYADSVKGRFTISRDNAKNTVYLQMNSLKPEDTAVYYCATERYSYRVYGGITTFEYWGQGSQVTVSS | high polyreactivity |
| QVQLVESGGGLVQAGGSLRLSCAASGIIFRYNTMGWYRQAPGKERELVAAISGGGRTYYADSVKGRFTISRDNAKNTVYLQMNSLKPEDTAVYYCAARYRTSGLDNYWGQGTQVTVSS | high polyreactivity |
| QVQLVESGGGLVQAGGSLRLSCAASGRIFNPYAMGWYRQAPWKERELVAAIRRSGVDTYYADSVKGRFTNSRDNAKNTVYFQMNSLKPEDTAVYYCNAVYKRIGYSEFDYWGQGTQVTVSS | low polyreactivity |
| QFQLVESGGGLVQAGGSLRLSCAASGRTFWYYDMGWYRQAPGKERELFATITSGGSTNYADSVKGRFTISRDNAKNTVYLQMNSLKPEDTAVYYCAAARWRWQLARDDYWGQGTQVTLSS | high polyreactivity |
| QVQLVESGGGLVQAGGSLRLSCAASGFTFYTYAMGWYRQPPGKERELVAAISRRGGSTYYADSVKGRFTISRDNAKNTVYLQMNSLKPEDTAVYYFNAVADSYSGFDGYYYWGQGTQVTVSS | high polyreactivity |
| QVQLVESGGGLVQAGGSLRLSCAASYAMGGYRQAPGKERELVAGISRSGDITYYADSVKGRFTISRDNAKNTVYLQMNSLKPEDTAVYYCAARQGRYSGRQLFYWGQGTQVTVSS | high polyreactivity |
| QVQLVESGGGLVQAGGSLRLSCAASGSIFGGYAMGWYRQAPGKERELVAAISWSSSSTYYADSVKGRFTISRDNAKNTVYLQMNSLKPEDTAVYYCNAKPFYDYTEYDYWGQGTQVTVSS | low polyreactivity |
| QVHLVESGGGLVQAGGSLRLSCAASGSIFSDYAMGWYRQAPGKERELVAAITWSGGSTYYADSVKGRFTISRDNAKNTVYLQMNSLKPEDTAVYYCAARFGKVRDFRYAYLLEYDYWGQGTQVTVSS | low polyreactivity |
| QVQLVESGGGIVQAGGSLRLSCAASGSIFDSNAMGWYRQAPGKERELVAAITGSGTSTYYADSVKGRFTISRDNAKNTVYLQMNSLKPEDTAVYYCAAAPEYLTDHDYWGQGTQVTVSS | low polyreactivity |
| QVQLVESGGGLVQAGGSLRLSCAASGSTFVIYAMGWYIQAPGKERELVAAINSGVSTYADSVKGRFTISRDNAKNTVYLQMNSLKPEDTAVYYCNAVSRPPYGPVFSAPAGGSWGQGTQVTVSS | low polyreactivity |
| QVQLVESGGGLVQAGGSLRLSCAASGFIFDDNAMGWYRQAPGKEREVVAAITSGGGSTYYADSVKGRFTISRDNAKNTVYLQMNSLKPEDTAVYYCNAVPSQHDEFDYWGQGTQVTVSS | low polyreactivity |
| QVQLVESGGGLVQAGGSLRLSCAASGSIFQHNDMGWYRQAPGKERELVAAMSRSGGSTYYADSVKGRFTISRDNAKNTVYLQRNSLKPEDTAVYYCNAGRRTGRYAYWGQGTQVTVSS | high polyreactivity |
| QVQLEESGGGLVQAGGSLRISCAASGRIFRKYTMGWYRQAPGKERELVAAITGTGGSTYYADSVKGRFTISRDNAKNTVYLQMNSLKPVVTAVYYCAADYSARYGYWGQGTQVTVSS | high polyreactivity |
| QVHLVESGGGLVQAGGSLRLSCAASGSTFYRYAMGWYRQAPGKERELVAAITTSGDSTYYADSVKGRFTISRDNAKNTVYLQMNSLKPEDTAIYDCNKVGRYSSYYWGQGSQVTVSS | high polyreactivity |
| QVQLVESGGGLVQAGGSLRLSCAASGRTFESYAMGWYRQAPGTERELVAAITWSGGDTYYADSVKGRFTISRDNAKNTVYLQMNSLKPEETAVYYCAKEQGLYSVSPYDYWGQGTQVTVSS | low polyreactivity |
| QVQLVESGGGLVQAGGSLRLSCAASGSIFCRYDMGWLDRRLGKKGSSLPLLLVLVTTRTTQTPVKGRFTISRDNAKNTVYLQIICLKPEDTAVYNCAADLRASGLKYEYWGQGTQVTVSS | low polyreactivity |
| QVQHVESGGGLVQAGGSLRLSCAASGRTFRDYVMGWYRQAPGKETALVAAISTRGASTYYADSVKGRFTISRDNANNTVYLQMNRLKPEDTAVYYCAARSTRRGNEYDYWGQRTQVTVSS | high polyreactivity |
